Article PMC8219780, “The MLKL kinase-like domain dimerization is an indispensable step of mammalian MLKL activation in necroptosis signaling” (Cell Death & Disease, 2021)

Experiments:
[1] = target: human MLKL kinase-like domain, phosphor-sites' mutant T357A/S358A (179~471 aa), recombinant (human) (UniProt Q8NB16); experiment: cross-linking; purified recombinant MLKL KLD proteins with 500 uM DSG, 30 min, room temperature; stopped with 100 mM Tris-HCl pH 7.5; SDS-PAGE, Coomassie
[2] = target: Flag-tagged mouse MLKL kinase-like domain, phosphomimic mutant S345D, expressed in HEK293T (mouse) (UniProt Q9D2Y4); experiment: cross-linking; whole-cell lysates of HEK293T cells expressing Flag-tagged MLKL KLD proteins (24 h); 500 uM DSG 30 min; SDS-PAGE, western blot anti-Flag
[3] = target: Flag-tagged human MLKL kinase-like domain, phosphomimic mutant T357ES358D, expressed in HEK293T (human); experiment: as above
[4] = target: the molecule itself; experiment: SEC; gel filtration of purified His-Sumo tagged human MLKL (126~181 aa) on Superdex 200; fractions on SDS-PAGE, Coomassie
[5] = target: the molecule itself; experiment: SEC; gel filtration of purified recombinant human MLKL KLD proteins on Superdex 75; fractions on SDS-PAGE, Coomassie; standards BSA 67 kDa, ovalbumin 44 kDa, ribonuclease A 14 kDa
[6] = target: the molecule itself; experiment: cross-linking; purified recombinant MLKL KLD proteins with 500 uM DSG, 30 min, room temperature; stopped with 100 mM Tris-HCl pH 7.5; SDS-PAGE, Coomassie

human MLKL kinase-like domain, phosphor-sites' mutant T357A/S358A (179~471 aa), recombinant (from UniProt Q8NB16 179-471) (domain or fragment)
stoichiometry N [1]: 2

Flag-tagged mouse MLKL kinase-like domain, phosphomimic mutant S345D, expressed in HEK293T (from UniProt Q9D2Y4 192-456) (domain or fragment)
stoichiometry N [2]: 2

Flag-tagged human MLKL kinase-like domain, phosphomimic mutant T357ES358D, expressed in HEK293T (domain or fragment)
stoichiometry N [3]: 2

B1: His-Sumo tagged human MLKL (126~181 aa), internal coiled-coil region, wild-type (domain or fragment, UniProt Q8NB16 126-181, looked up)
chain: PISQGASWAQEDQQDADEDRRAFQMLRRDNEKIEASLRRLEINMKEIKETLRQYLP
notes: Vector PET-SUMO; also called internal coiled-coil in brace region; source: E. coli BL21(DE3), purified (NTA resin, Superdex 200)
binding result [4]: binds

B2: human MLKL kinase-like domain, phosphomimic mutant T357E/S358D (179~471 aa), recombinant (domain or fragment, UniProt Q8NB16 179-471, looked up)
chain: YLPPKCMQEIPQEQIKEIKKEQLSGSPWILLRENEVSTLYKGEYHRAPVAIKVFKKLQAGSIAIVRQTFNKEIKTMKKFESPNILRIFGICIDETVTPPQFSIVMEYCELGTLRELLDREKDLTLGKRMVLVLGAARGLYRLHHSEAPELHGKIRSSNFLVTQGYQVKLAGFELRKTQEDMSLGTTREKTDRVKSTAYLSPQELEDVFYQYDVKSEIYSFGIVLWEIATGDIPFQGCNSEKIRKLVAVKRQQEPLGEDCPSELREIIDECRAHDPSVRPSVDEILKKLSTFSK
notes: Mixed lineage kinase domain-like protein (MLKL), human, kinase-like domain, residues 179-471, T357E/S358D; GST removed with HRV3C protease; residues of the site may remain at the N-terminus; source: Sf9 insect cells (baculovirus), purified (Glutathione Sepharose 4B, on-column HRV3C digestion, Superdex 75 or 200); not shown: GST, N-terminal, cleaved
stoichiometry N [5]: 2

B3: human MLKL kinase-like domain, wild-type (179~471 aa), recombinant (domain or fragment, UniProt Q8NB16 179-471, looked up)
chain: YLPPKCMQEIPQEQIKEIKKEQLSGSPWILLRENEVSTLYKGEYHRAPVAIKVFKKLQAGSIAIVRQTFNKEIKTMKKFESPNILRIFGICIDETVTPPQFSIVMEYCELGTLRELLDREKDLTLGKRMVLVLGAARGLYRLHHSEAPELHGKIRSSNFLVTQGYQVKLAGFELRKTQTSMSLGTTREKTDRVKSTAYLSPQELEDVFYQYDVKSEIYSFGIVLWEIATGDIPFQGCNSEKIRKLVAVKRQQEPLGEDCPSELREIIDECRAHDPSVRPSVDEILKKLSTFSK
notes: Mixed lineage kinase domain-like protein (MLKL), human, kinase-like domain, residues 179-471; residues of the site may remain at the N-terminus; also called MLKL KLD; WT; source: Sf9 insect cells (baculovirus), purified (Glutathione Sepharose 4B, on-column HRV3C digestion, Superdex 75 or 200); not shown: GST, N-terminal, cleaved
stoichiometry N [6]: 2
